± gives the standard deviation of the averaged measurements.

This data set concerns ATP. As to the kind of experiment: switch fluorescence ratio, 500 uM ATP over buffer (Cy3 cluster intensity, sum of 5 cycles each) (fold (ratio)); higher = stronger signal-on switching upon ATP binding; sequences stand for … in TCGTCGGCAGCGTCAGATGTGTATAAGAGACAGTTTTTTTTTTTTTTTTTTTTTTTTT…TC. To be noted: aptamer strand: ATP DNA aptamer (quencher-CACCTGGGGGAGTATTGCGGAGGAAGG + anchor), 100 nM annealed; ATP concentration: 500 uM. In a few lines: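 Cy3-labelled switching-strand clusters on a modified Illumina MiSeq flow-cell were annealed to 100 nM quencher-labelled ATP aptamer and imaged first in selection buffer, then after 15 min with 500 uM ATP at 22 °C. NaOH stripping and re-annealing separated each of five buffer/ATP cycles, and clusters outside 100-1000 RFU were excluded. The fluorescence ratio sums target-cycle Cy3 intensity over buffer-cycle Cy3 intensity per cluster and averages it per switch-domain sequence.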
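Note: ATP exposure 15 min at 22 °C before imaging.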

Take TTGACAGGTT: the switch fluorescence ratio is 1.15 ± 0.19.
Consider TTGACCAATA, for which the switch fluorescence ratio amounted to 1.12 ± 0.016.
TTGACCTGAG: the switch fluorescence ratio worked out at 1.08 ± 0.013.
In the case of TTGACGGGGA it was 1.12 ± 0.17; in that of TTGACGTCGG, 0.985 ± 0.018.
For the sequence TTGACGTGTT, the switch fluorescence ratio stood at 1.03 ± 0.047.
Consider TTGACTGGAA, for which the switch fluorescence ratio was 1.02 ± 0.011.
To TTGACTGGAG belongs 1 ± 0.011; to TTGACTTTAA, 1 ± 0.083; to TTGAGAAATT, 1 ± 0.014.
With TTGAGACTAG, the switch fluorescence ratio worked out at 1 ± 0.015.
As to TTGAGACTCG, the switch fluorescence ratio is 0.995 ± 0.019.
TTGAGACTGT: the switch fluorescence ratio worked out at 0.971 ± 0.052.
For TTGAGAGCAA, the switch fluorescence ratio came to 1.72 ± 0.18.
TTGAGAGCAG: the switch fluorescence ratio is 1.24 ± 0.11.
For the sequence TTGAGATAAG, the switch fluorescence ratio came to 0.9819 ± 0.0014.
Regarding TTGAGATTGA, the switch fluorescence ratio was determined as 1.01 ± 0.02.
For TTGAGATTTG, the switch fluorescence ratio amounted to 1.01 ± 0.013.
In the case of TTGAGATTTT it was 0.996 ± 0.023.
Regarding TTGAGCATAT, the switch fluorescence ratio is 2.12 ± 1.2.
With TTGAGCGGGT, the switch fluorescence ratio was 1.11 ± 0.091.
Turning to TTGAGCTTCA, the switch fluorescence ratio was 1.115 ± 0.0063.
For TTGAGGAAGG, the switch fluorescence ratio is 0.9835 ± 0.0018.
Turning to TTGAGGAGGG, the switch fluorescence ratio was determined as 0.962 ± 0.11.
As for TTGAGGCGGA, the switch fluorescence ratio came out at 1.04 ± 0.033.
Regarding TTGAGGGACT, the switch fluorescence ratio worked out at 1.01 ± 0.018.
Regarding TTGAGGGATC, the switch fluorescence ratio stood at 1.01 ± 0.06.
For the sequence TTGAGGGCAG, the switch fluorescence ratio was 1 ± 0.034.
As to TTGAGGGTGA, the switch fluorescence ratio worked out at 0.988 ± 0.016.
On to TTGAGGGTTC, for which the switch fluorescence ratio was determined as 0.96 ± 0.022.
For the sequence TTGAGGGTTT, the switch fluorescence ratio came to 0.994 ± 0.029.
As to TTGAGGTCGG, the switch fluorescence ratio was determined as 1.005 ± 0.0066.
As to TTGAGGTGCG, the switch fluorescence ratio turned out to be 1.01 ± 0.026.
For TTGAGTCGTC, the switch fluorescence ratio stood at 0.962 ± 0.011.
On to TTGAGTGGAG, for which the switch fluorescence ratio came out at 1.02 ± 0.029.
Regarding TTGAGTGGTT, the switch fluorescence ratio is 1.01 ± 0.092.
TTGAGTTTTG: the switch fluorescence ratio amounted to 0.985 ± 0.031.
To TTGATACCAG belongs 0.982 ± 0.013.
In the case of TTGATAGGCC it was 0.9998 ± 0.0049.
With TTGATAGGGT, the switch fluorescence ratio worked out at 1.01 ± 0.026.
To TTGATAGTTG belongs 1.01 ± 0.049; to TTGATATTTG, 1.01 ± 0.039; to TTGATCAGAG, 1.01 ± 0.024.
For the sequence TTGATCAGTA, the switch fluorescence ratio was 1.02 ± 0.02.
To TTGATCGTGC belongs 1.12 ± 0.18; to TTGATCTGCT, 0.987 ± 0.023.
TTGATGATCC: the switch fluorescence ratio amounted to 0.9781 ± 0.0034.
For TTGATGCAGC, the switch fluorescence ratio was found to be 0.958 ± 0.054.
In the case of TTGATGGGGA it was 0.982 ± 0.014; in that of TTGATGGGTT, 1.02 ± 0.011; in that of TTGATGTCAA, 0.999 ± 0.056.
Regarding TTGATGTCCC, the switch fluorescence ratio was determined as 1 ± 0.027.
With TTGATTGGCG, the switch fluorescence ratio was found to be 1.07 ± 0.058.
As for TTGATTGGGG, the switch fluorescence ratio was determined as 0.989 ± 0.029.
TTGATTTAGG: the switch fluorescence ratio came to 0.995 ± 0.028.
Regarding TTGATTTTAA, the switch fluorescence ratio was 1 ± 0.014.
For TTGATTTTTG, the switch fluorescence ratio was determined as 1.01 ± 0.03.
For TTGCAATTTT, the switch fluorescence ratio was found to be 1.36 ± 0.46.
On to TTGCACAATT, for which the switch fluorescence ratio came out at 1.01 ± 0.057.
To TTGCACTACT belongs 1.5 ± 0.025; to TTGCACTGAC, 1.53 ± 0.21.
In the case of TTGCAGCTCA, the switch fluorescence ratio is 1.78 ± 1.1.
For TTGCAGTAGC, the switch fluorescence ratio was determined as 1.05 ± 0.033.
TTGCATAGTG: the switch fluorescence ratio came to 0.9536 ± 0.0026.
Turning to TTGCATGTTG, the switch fluorescence ratio was 0.9886 ± 0.0033.
In the case of TTGCATGTTT it was 1.15 ± 0.3; in that of TTGCATTAAG, 0.9963 ± 0.0082; in that of TTGCATTAGG, 1.28 ± 0.31.
Consider TTGCATTATA, for which the switch fluorescence ratio is 1.07 ± 0.054.
For TTGCATTGGA, the switch fluorescence ratio is 0.9885 ± 0.0079.
In the case of TTGCATTTTC it was 1.09 ± 0.11.
Take TTGCATTTTG: the switch fluorescence ratio was 0.985 ± 0.025.
In the case of TTGCCAATCC it was 1.04 ± 0.04; in that of TTGCCAGATT, 0.994 ± 0.037.
In the case of TTGCCCCGTA it was 1.02 ± 0.023; in that of TTGCCCCTTA, 1.03 ± 0.045.
As to TTGCCGGGCA, the switch fluorescence ratio came out at 0.987 ± 0.032.
For TTGCCTCGGG, the switch fluorescence ratio is 1.04 ± 0.037.
For TTGCCTGGGG, the switch fluorescence ratio was 1.02 ± 0.013.
For TTGCGAGAAC, the switch fluorescence ratio is 1.17 ± 0.18.
In the case of TTGCGATGGT it was 1.02 ± 0.012; in that of TTGCGGAGGG, 1.01 ± 0.069; in that of TTGCGGGGCC, 1.04 ± 0.051.
As to TTGCGTATGG, the switch fluorescence ratio amounted to 1.01 ± 0.021.
In the case of TTGCTAAAAG it was 1.02 ± 0.028.
TTGCTAGCCT: the switch fluorescence ratio came to 1.01 ± 0.021.
Turning to TTGCTAGTAT, the switch fluorescence ratio stood at 1.0001 ± 0.00075.
Regarding TTGCTATGTT, the switch fluorescence ratio stood at 1.01 ± 0.037.
As for TTGCTCACTT, the switch fluorescence ratio is 1.04 ± 0.029.
TTGCTCTTGG: the switch fluorescence ratio stood at 0.956 ± 0.0095.
TTGCTGAGCT: the switch fluorescence ratio is 0.9984 ± 0.0076.
As for TTGCTGATTT, the switch fluorescence ratio was found to be 0.992 ± 0.059.
Regarding TTGCTGGGCC, the switch fluorescence ratio is 1.02 ± 0.088.
To TTGCTTAGTT belongs 1.002 ± 0.0071; to TTGCTTATCG, 1.021 ± 0.0047.
For TTGCTTATGG, the switch fluorescence ratio worked out at 1.01 ± 0.015.
Consider TTGCTTCGGC, for which the switch fluorescence ratio was 0.976 ± 0.04.
For TTGCTTGGTG, the switch fluorescence ratio turned out to be 1.03 ± 0.017.
As to TTGCTTGTTG, the switch fluorescence ratio was 1.02 ± 0.034.
For TTGCTTTTCG, the switch fluorescence ratio is 0.974 ± 0.015.
Take TTGCTTTTTG: the switch fluorescence ratio was 0.984 ± 0.064.
As for TTGGAAACCA, the switch fluorescence ratio was determined as 1.02 ± 0.015.
To TTGGAAACGT belongs 1.06 ± 0.067; to TTGGAAAGCA, 1.03 ± 0.027; to TTGGAAATTT, 1.05 ± 0.17.
In the case of TTGGAAGATT, the switch fluorescence ratio was determined as 0.9881 ± 0.003.
Regarding TTGGAATGGG, the switch fluorescence ratio was determined as 1 ± 0.026.
On to TTGGACAGTT, for which the switch fluorescence ratio was determined as 0.99 ± 0.04.
TTGGACGGGG: the switch fluorescence ratio came to 1.07 ± 0.035.
TTGGACGTGT: the switch fluorescence ratio was determined as 0.946 ± 0.027.
Turning to TTGGACTCGG, the switch fluorescence ratio is 0.997 ± 0.034.
In the case of TTGGAGAGGT it was 1.02 ± 0.019; in that of TTGGAGGCCC, 0.9801 ± 0.0029.
For the sequence TTGGAGGGG, the switch fluorescence ratio was found to be 0.988 ± 0.025.
Consider TTGGAGGTAG, for which the switch fluorescence ratio was 1 ± 0.037.
Take TTGGAGGTTT: the switch fluorescence ratio was 1.17 ± 0.24.
To TTGGATACGG belongs 0.995 ± 0.031.
TTGGATCTTA: the switch fluorescence ratio was 0.972 ± 0.02.
TTGGATTAGT: the switch fluorescence ratio worked out at 0.982 ± 0.011.
As for TTGGATTCCC, the switch fluorescence ratio turned out to be 0.977 ± 0.064.

These data come from the supplement of paper PMC10126150.
